Test results reported in US20260242735A1.

How the values were obtained:
Assay in all cases: alanine scan, flow cytometry, HEK293-T
human CD33 A182S (human) = human CD33 A182S (human) (UniProt P20138)
human CD33 C169A (human) = human CD33 C169A (human) (UniProt P20138)
human CD33 D70A (human) = human CD33 D70A (human) (UniProt P20138)
human CD33 E63A (human) = human CD33 E63A (human) (UniProt P20138)
human CD33 E81A (human) = human CD33 E81A (human) (UniProt P20138)
human CD33 H193A (human) = human CD33 H193A (human) (UniProt P20138)
human CD33 H57A (human) = human CD33 H57A (human) (UniProt P20138)
human CD33 I105A (human) = human CD33 I105A (human) (UniProt P20138)
Chain of human CD33 I105A (human) (P20138 18-364 I105A limits assumed): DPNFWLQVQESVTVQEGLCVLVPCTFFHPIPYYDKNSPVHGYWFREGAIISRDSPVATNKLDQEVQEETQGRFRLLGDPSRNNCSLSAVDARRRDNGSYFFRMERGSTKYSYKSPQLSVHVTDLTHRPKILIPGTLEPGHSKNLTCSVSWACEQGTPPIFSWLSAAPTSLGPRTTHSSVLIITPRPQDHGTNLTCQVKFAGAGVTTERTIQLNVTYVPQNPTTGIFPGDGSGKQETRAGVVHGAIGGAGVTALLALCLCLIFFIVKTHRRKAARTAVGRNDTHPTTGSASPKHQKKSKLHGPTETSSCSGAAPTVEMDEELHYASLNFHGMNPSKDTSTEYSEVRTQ

human CD33 I147A (human) = human CD33 I147A (human) (UniProt P20138)
human CD33 K130A (human) = human CD33 K130A (human) (UniProt P20138)
human CD33 K146A (human) = human CD33 K146A (human) (UniProt P20138)
human CD33 K77A (human) = human CD33 K77A (human) (UniProt P20138)
Chain of human CD33 K77A (human) (P20138 18-364 K77A limits assumed): as the sequence (P20138 18-364 I105A limits assumed) above, with K60A, A88I counted along it

human CD33 L103A (human) = human CD33 L103A (human) (UniProt P20138)
Chain of human CD33 L103A (human) (P20138 18-364 L103A limits assumed): as the sequence (P20138 18-364 I105A limits assumed) above, with L86A, A88I counted along it

human CD33 L153A (human) = human CD33 L153A (human) (UniProt P20138)
human CD33 L180A (human) = human CD33 L180A (human) (UniProt P20138)
human CD33 L92A (human) = human CD33 L92A (human) (UniProt P20138)
Chain of human CD33 L92A (human) (P20138 18-364 L92A limits assumed): as the sequence (P20138 18-364 I105A limits assumed) above, with L75A, A88I counted along it

human CD33 N160A (human) = human CD33 N160A (human) (UniProt P20138)
human CD33 N53A (human) = human CD33 N53A (human) (UniProt P20138)
Chain of human CD33 N53A (human) (P20138 18-364 N53A limits assumed): as the sequence (P20138 18-364 I105A limits assumed) above, with N36A, A88I counted along it

human CD33 N99A (human) = human CD33 N99A (human) (UniProt P20138)
Chain of human CD33 N99A (human) (P20138 18-364 N99A limits assumed): as the sequence (P20138 18-364 I105A limits assumed) above, with N82A, A88I counted along it

human CD33 P145A (human) = human CD33 P145A (human) (UniProt P20138)
human CD33 P184A (human) = human CD33 P184A (human) (UniProt P20138)
human CD33 P46A (human) = human CD33 P46A (human) (UniProt P20138)
human CD33 Q83A (human) = human CD33 Q83A (human) (UniProt P20138)
human CD33 Q87A (human) = human CD33 Q87A (human) (UniProt P20138)
human CD33 R110A (human) = human CD33 R110A (human) (UniProt P20138)
human CD33 R122A (human) = human CD33 R122A (human) (UniProt P20138)
Chain of human CD33 R122A (human) (P20138 18-364 R122A limits assumed): as the sequence (P20138 18-364 I105A limits assumed) above, with A88I, R105A counted along it

human CD33 R190A (human) = human CD33 R190A (human) (UniProt P20138)
human CD33 R89A (human) = human CD33 R89A (human) (UniProt P20138)
human CD33 R91A (human) = human CD33 R91A (human) (UniProt P20138)
Chain of human CD33 R91A (human) (P20138 18-364 R91A limits assumed): as the sequence (P20138 18-364 I105A limits assumed) above, with R74A, A88I counted along it

human CD33 S102A (human) = human CD33 S102A (human) (UniProt P20138)
human CD33 S115A (human) = human CD33 S115A (human) (UniProt P20138)
human CD33 S128A (human) = human CD33 S128A (human) (UniProt P20138)
human CD33 S131A (human) = human CD33 S131A (human) (UniProt P20138)
Chain of human CD33 S131A (human) (P20138 18-364 S131A limits assumed): as the sequence (P20138 18-364 I105A limits assumed) above, with A88I, S114A counted along it

human CD33 S166A (human) = human CD33 S166A (human) (UniProt P20138)
Chain of human CD33 S166A (human) (P20138 18-364 S166A limits assumed): as the sequence (P20138 18-364 I105A limits assumed) above, with A88I, S149A counted along it

human CD33 S186A (human) = human CD33 S186A (human) (UniProt P20138)
Chain of human CD33 S186A (human) (P20138 18-364 S186A limits assumed): as the sequence (P20138 18-364 I105A limits assumed) above, with A88I, S169A counted along it

human CD33 S195A (human) = human CD33 S195A (human) (UniProt P20138)
Chain of human CD33 S195A (human) (P20138 18-364 S195A limits assumed): as the sequence (P20138 18-364 I105A limits assumed) above, with A88I, S178A counted along it

human CD33 S71A (human) = human CD33 S71A (human) (UniProt P20138)
human CD33 T125A (human) = human CD33 T125A (human) (UniProt P20138)
human CD33 T142A (human) = human CD33 T142A (human) (UniProt P20138)
human CD33 T173A (human) = human CD33 T173A (human) (UniProt P20138)
human CD33 V136A (human) = human CD33 V136A (human) (UniProt P20138)
human CD33 V56A (human) = human CD33 V56A (human) (UniProt P20138)
human CD33 V82A (human) = human CD33 V82A (human) (UniProt P20138)
Chain of human CD33 V82A (human) (P20138 18-364 V82A limits assumed): as the sequence (P20138 18-364 I105A limits assumed) above, with V65A, A88I counted along it

human CD33 W60A (human) = human CD33 W60A (human) (UniProt P20138)
human CD33 Y50A (human) = human CD33 Y50A (human) (UniProt P20138)

Chain of human CD33 E81A (human) (P20138 18-364 E81A limits assumed): as the sequence (P20138 18-364 I105A limits assumed) above, with E64A, A88I counted along it

Refmab #7 (WM53) (antibody)
Mean % WT Binding (human CD33 A182S (human)): 114 % WT binding
Mean % WT Binding (human CD33 C169A (human)): 90 % WT binding
Mean % WT Binding (human CD33 D70A (human)): 81.2 % WT binding
Mean % WT Binding (human CD33 E63A (human)): 93 % WT binding
Mean % WT Binding (human CD33 E81A (human)): 98.4 % WT binding
Mean % WT Binding (human CD33 H193A (human)): 107 % WT binding
Mean % WT Binding (human CD33 H57A (human)): 112 % WT binding
Mean % WT Binding (human CD33 I105A (human)): 56.1 % WT binding
Mean % WT Binding (human CD33 I147A (human)): 92 % WT binding
Mean % WT Binding (human CD33 K130A (human)): 148 % WT binding
Mean % WT Binding (human CD33 K146A (human)): 91.1 % WT binding
Mean % WT Binding (human CD33 K77A (human)): 117 % WT binding
Mean % WT Binding (human CD33 L103A (human)): 109 % WT binding
Mean % WT Binding (human CD33 L153A (human)): 101 % WT binding
Mean % WT Binding (human CD33 L180A (human)): 105 % WT binding
Mean % WT Binding (human CD33 L92A (human)): 89.9 % WT binding
Mean % WT Binding (human CD33 N160A (human)): 112 % WT binding
Mean % WT Binding (human CD33 N53A (human)): 140 % WT binding
Mean % WT Binding (human CD33 N99A (human)): 102 % WT binding
Mean % WT Binding (human CD33 P145A (human)): 102 % WT binding
Mean % WT Binding (human CD33 P184A (human)): 106 % WT binding
Mean % WT Binding (human CD33 P46A (human)): 75.3 % WT binding
Mean % WT Binding (human CD33 Q83A (human)): 120 % WT binding
Mean % WT Binding (human CD33 Q87A (human)): 90.1 % WT binding
Mean % WT Binding (human CD33 R110A (human)): 95.9 % WT binding
Mean % WT Binding (human CD33 R122A (human)): 25.1 % WT binding
Mean % WT Binding (human CD33 R190A (human)): 123 % WT binding
Mean % WT Binding (human CD33 R89A (human)): 94 % WT binding
Mean % WT Binding (human CD33 R91A (human)): 114 % WT binding
Mean % WT Binding (human CD33 S102A (human)): 111 % WT binding
Mean % WT Binding (human CD33 S115A (human)): 95.1 % WT binding
Mean % WT Binding (human CD33 S128A (human)): 179 % WT binding
Mean % WT Binding (human CD33 S131A (human)): 114 % WT binding
Mean % WT Binding (human CD33 S166A (human)): 108 % WT binding
Mean % WT Binding (human CD33 S186A (human)): 93.4 % WT binding
Mean % WT Binding (human CD33 S195A (human)): 117 % WT binding
Mean % WT Binding (human CD33 S71A (human)): 104 % WT binding
Mean % WT Binding (human CD33 T125A (human)): 91.3 % WT binding
Mean % WT Binding (human CD33 T142A (human)): 113 % WT binding
Mean % WT Binding (human CD33 T173A (human)): 103 % WT binding
Mean % WT Binding (human CD33 V136A (human)): 85.9 % WT binding
Mean % WT Binding (human CD33 V56A (human)): 117 % WT binding
Mean % WT Binding (human CD33 V82A (human)): 108 % WT binding
Mean % WT Binding (human CD33 W60A (human)): 2.1 % WT binding
Mean % WT Binding (human CD33 Y50A (human)): 1 % WT binding
